T1: pituitary adenylate cyclase-activating polypeptide (PACAP) (UniProt P18509 132-169, not fully specified; biotin label in the ELISA of Example 3 (Biotin-PACAP; position not stated); unlabelled in the cAMP assay)
T1 construct: also called PACAP38; Biotin-PACAP
T1 peptide (looked up): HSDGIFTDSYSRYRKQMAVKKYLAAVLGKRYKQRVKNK

B1: A10-268-76 (VHH)
VHH: QVQLVESGGGLVPAGGSLNLSCAASGRTFSTYAMGWFRQAPGKEREFVATINWDNGRTYYADSVKGRFTISRDNAKNMVYLQMNSLKPEDTAVYYCAADKTAIFRTSVVPDDYDYWGQGTQVTVSS
notes: Llama VHH with C-terminal 6xHis, expressed in 293 cells; also called B828604
B2: A10-268-18 (VHH)
VHH: QVQLVESGGGQVQAGGSLRLSCAASGRISSSYDMGWLRQAPGKEREFVARITWSGGSTYYADSVKGRFTISRDSTKKTVYLQMNSLKPEDTAVYYCAANRAFTGQYDYWGQGTQVTVSS
B3: A10-268-42 (VHH)
VHH: QVQLVESGGGLVQAGDSLRLSCAASGRTFSGYVMGWFRQAPGKEREFVAALRWSSSNTNYAASVKGRFTISRDYAKDTVYLQMNSLKPDDTAVYYCAAKRDRPYGSTWTPVAADYDTWGQGTQVTVSS
notes: Llama VHH with C-terminal 6xHis, expressed in 293 cells; also called B828603; 42wt
B4: A10-268-273 (VHH)
VHH: B3 VHH with Q1E, A14P, R19T, T28A, F29K, S30N, G31R, S128A
B5: A10-268-103 (VHH)
VHH: QVQLVESGGGLVQAGGSLRLSCVASGRTFSSYAMGWFRQAPGKEREFVSGITESGATTRYADSMRGRFIISRDNAQNTVYLEMNSLKPEDSAVYYCAASRFGITVPTAKGAYNYWGQGTQVTVSS
notes: Llama VHH with C-terminal 6xHis, expressed in 293 cells; also called B828605
B6: A10-268-5 (VHH)
VHH: QVQLVESGGGLVQAGGSLRLSCAVSGRTVTTITMGWFRQAPGKEREFVASISWDGLSTGYQDSVKGRFTISRDNAKNTVYLQMNSLKPEDTAVYYCAAGDSLWSWSKVPANYAYWGQGTQVTVSS
notes: Llama VHH with C-terminal 6xHis, expressed in 293 cells; also called B828601
B7: PAC1s ECD-Fc (Fc fusion)
chain: MHSDCIFKKEQAMCLEKIQRANELMGFNDSSPGCPGMWDNITCWKPAHVGEMVLVSCPELFRIFNPDQDMGVVSRNCTEDGWSEPFPHYFDACGFDEYESETGDQDYYYLSVKA
notes: C-terminus of PAC1s ECD fused to the N-terminus of Fc; also called PACs1 ECD-Fc; PACls ECD-Fc; not shown: Fc fused to the C-terminus of the ECD
B8: A10-269-385 (VHH)
VHH: EVQLVESGGGLVQAGGSLRVSCQASEISFSFHAMGWYRQAPGKQRELVARITSIGRTTYADFVKGRFTISRGNAKNTVYLQMNSLKPEDTAVYYCNAEPGRVNYEYWGQGTQVTVSS
notes: Llama VHH with C-terminal 6xHis, expressed in 293 cells; also called N220505107
B9: A10-269-165 (VHH)
VHH: QVQLVESGGGLVQAGGSLRLSCAASRTWFSIGAMGWYRQAPGKQRELVATITSGSSTTYADAVKGRFTVSRDNAENTVYLQMNSLKPEDTAVYYCYTKSRRKPWDLENDYWGQGTQVTVSS
notes: Llama VHH with C-terminal 6xHis, expressed in 293 cells; also called N220505103
B10: A10-269-238 (VHH)
VHH: QVQLVESGGGLVQPGGSLRLSCAASGFTFGNYDMSWVRQAPGKGPEWVSGIAPAGTITRYADSVKGRFTISRDNAKNTLYLQMNSLKPEDTAVYRCAKGASWGQGTQVTVSS
notes: Llama VHH with C-terminal 6xHis, expressed in 293 cells; also called N220505106
B11: A10-269-172 (VHH)
VHH: EVQVVESGGGLVQAGGSLRLSCVSSESSFSINTMRWYRQAPGKERELVASINSASSTYYGDAVKGRFTISRVNAKNTVYLQMNSLKPEDTAVYFCNTHSVLASRDYWGQGTQVTVSS
notes: Llama VHH with C-terminal 6xHis, expressed in 293 cells; also called N220505104
B12: A10-269-56 (VHH)
VHH: EVQLVESGGGLVQAGGSLRLSCAASGSTFSGRYMGWFRQGQGKEREFVAASMWSGTAISYADSVKGRFTISRDNAKATMYLQMSSLKDEDTAVYYCAAGGLWNLKLSDAGYYEYWGQGTQVTVSS
notes: Llama VHH with C-terminal 6xHis, expressed in 293 cells; also called N220505101

This is an account of results in patent publication EP4644423A1 (Biyopharma Co., Ltd, dated 2025).

Residue numbers refer to the chain shown, from its start. A value given as a limit tells only on which side of the number the result lay.

In one experiment the target is CGRP receptor on SK-N-MC cells (UniProt O60894 27-148; Q16602 23-461, limits assumed). Nature of the experiment: cell-based or functional assay.
CGRP receptor on SK-N-MC cells, sequence (O60894 27-148 limits assumed, chain 1 of 2): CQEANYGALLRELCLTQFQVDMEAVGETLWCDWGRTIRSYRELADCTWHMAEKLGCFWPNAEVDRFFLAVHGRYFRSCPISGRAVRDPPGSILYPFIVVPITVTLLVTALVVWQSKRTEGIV
CGRP receptor on SK-N-MC cells, sequence (Q16602 23-461 limits assumed, chain 2 of 2): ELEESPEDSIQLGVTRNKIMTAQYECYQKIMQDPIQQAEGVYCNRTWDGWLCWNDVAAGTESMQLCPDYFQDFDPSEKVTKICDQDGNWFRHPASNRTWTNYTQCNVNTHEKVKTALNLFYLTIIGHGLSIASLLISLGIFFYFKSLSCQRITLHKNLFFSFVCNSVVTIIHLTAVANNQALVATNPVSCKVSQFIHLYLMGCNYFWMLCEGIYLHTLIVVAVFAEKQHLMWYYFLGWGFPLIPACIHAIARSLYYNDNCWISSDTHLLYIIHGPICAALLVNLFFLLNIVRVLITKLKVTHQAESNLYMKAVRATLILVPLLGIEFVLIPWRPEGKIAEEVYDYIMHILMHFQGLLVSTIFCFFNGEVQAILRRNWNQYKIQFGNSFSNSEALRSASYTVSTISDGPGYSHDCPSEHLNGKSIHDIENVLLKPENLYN
Consider B1, for which the “IC50 (nM), inhibition of CGRP-induced (5 nM) cAMP production in SK-N-MC cells” value (“IC50 (nM), inhibition of CGRP-induced” for short) was > 10000 nM.

As for B2, the “IC50 (nM), inhibition of CGRP-induced” value is 492 nM.

Take B3: the “IC50 (nM), inhibition of CGRP-induced” value came out at 39.7 nM.

As to B4, the “IC50 (nM), inhibition of CGRP-induced” value was determined as 23.6 nM.

As to B5, the “IC50 (nM), inhibition of CGRP-induced” value is 279 nM.

Turning to B6, the “IC50 (nM), inhibition of CGRP-induced” value is > 10000 nM.

For a further experiment, the target named is T1, pituitary adenylate cyclase-activating …. Nature of the experiment: ELISA, Biotin-PACAP on streptavidin plate, Fc fusion titrated, anti-human IgG-HRP.
Turning to B7, the “fold binding ability against PAC1 ECD-Fc” value was 40 times that of PAC1 ECD-Fc.

A further experiment deals with T2, RC-Fc (human).
T2 construct: Knob-in-hole heterodimer of the R chain and the C chain, human IgG1 Fc; expressed in 293 cells, purified on Protein A; also called RC-Fc fusion protein; reconstructed CGRP receptor extracellular region
T2 sequence (chain, as listed by the source limits assumed, chain 1 of 2): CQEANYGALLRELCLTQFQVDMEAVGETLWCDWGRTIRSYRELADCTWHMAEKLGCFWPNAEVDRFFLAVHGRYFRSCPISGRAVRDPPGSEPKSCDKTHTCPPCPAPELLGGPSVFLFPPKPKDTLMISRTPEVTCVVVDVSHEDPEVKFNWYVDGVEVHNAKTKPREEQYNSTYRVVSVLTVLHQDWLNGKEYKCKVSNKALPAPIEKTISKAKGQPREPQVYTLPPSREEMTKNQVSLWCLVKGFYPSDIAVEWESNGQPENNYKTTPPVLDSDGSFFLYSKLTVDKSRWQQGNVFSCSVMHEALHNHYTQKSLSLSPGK
T2 sequence (chain, as listed by the source limits assumed, chain 2 of 2): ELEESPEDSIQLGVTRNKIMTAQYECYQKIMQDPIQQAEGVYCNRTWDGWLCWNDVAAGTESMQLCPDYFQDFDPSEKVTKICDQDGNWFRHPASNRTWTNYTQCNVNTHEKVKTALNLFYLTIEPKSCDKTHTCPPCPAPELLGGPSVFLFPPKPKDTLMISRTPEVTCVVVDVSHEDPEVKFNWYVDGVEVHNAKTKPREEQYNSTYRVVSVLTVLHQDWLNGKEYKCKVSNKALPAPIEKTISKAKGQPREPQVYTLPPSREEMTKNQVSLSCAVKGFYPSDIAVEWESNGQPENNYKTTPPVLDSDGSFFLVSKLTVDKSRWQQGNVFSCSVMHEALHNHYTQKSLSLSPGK
Put plainly: ELISA, RC-Fc coated, VHH-His titrated, anti-His-HRP; average of Exp1-3.
Turning to B8, it took 0.062 nM to reach a half-maximal effect (EC50).

Take B1: the EC50 is 0.065 nM.

As for B3, the EC50 came out at 0.065 nM.

B5 displayed an EC50 of 0.25 nM.

In turn, B6 had an EC50 of 0.136 nM.

Turning to B9, the EC50 was found to be 0.211 nM.

With B10, the EC50 came to 0.082 nM.

For B11, the EC50 is 0.05 nM.

Another experiment addresses T2, RC-Fc. Put plainly: ELISA, RC-Fc coated, VHH-His titrated, anti-His-HRP; Exp1.
On to B8, for which the EC50 amounted to 0.052 nM.

In turn, B1 returned an EC50 of 0.024 nM.

B3 returned an EC50 of 0.025 nM.

As for B12, the binding result is given as “no binding”.

On to B5, for which the EC50 turned out to be 0.372 nM.

In turn, B6 yielded an EC50 of 0.143 nM.

B9 came in with an EC50 of 0.097 nM.

Consider B10, for which the response was half-maximal at 0.091 nM (EC50).

B11 showed an EC50 of 0.056 nM.

A further experiment deals with T2, RC-Fc. Put plainly: ELISA, RC-Fc coated, VHH-His titrated, anti-His-HRP; Exp3.
Consider B8, for which the midpoint of the response, the EC50, lay at 0.061 nM.

Turning to B1, the EC50 worked out at 0.028 nM.

For B3, the EC50 worked out at 0.021 nM.

In turn, B5 showed an EC50 of 0.265 nM.

In turn, B6 displayed an EC50 of 0.08 nM.

The molecule B9 came in with an EC50 of 0.48 nM.

Molecule B10 had an EC50 of 0.081 nM.

On to B11, for which the EC50 came out at 0.042 nM.

A further experiment has as its target T2, RC-Fc. Nature of the experiment: ELISA, RC-Fc coated, VHH-His titrated, anti-His-HRP; Exp2.
The molecule B8 yielded an EC50 of 0.073 nM.

Molecule B1 came in with an EC50 of 0.144 nM.

Regarding B3, a half-maximal effect (EC50) was put at 0.15 nM.

On to B5, for which the EC50 was 0.114 nM.

As for B6, the 50% effective concentration (EC50) was 0.184 nM.

B9 had an EC50 of 0.057 nM.

Consider B10, for which the EC50 worked out at 0.073 nM.

The molecule B11 returned an EC50 of 0.051 nM.
